Consider twelve variants from IntAct's records for PubMed 31515488.

First the molecules themselves.
B1: U3 small nucleolar RNA-associated protein 14 homolog C (Homo sapiens), Q5TAP6 (parent)
chain: MNVNQVAENLALSHQEELVDLPKNYPLSENEDEGDSDGERKHQKLLEAIISLDGKNRRKLAERSEASLKVSEFSVSSEGSGEKLGLADLLEPVKTSSSLATVKKQLNRVKSKKVVELPLNKEKIEQIHREVAFSKTSQVLSKWDPIILKNQQAEQLVFPLGKEQPAIAPIEHALSGWKARTPLEQEIFNLLHKNKQPVTDPLLTPMEKASLQAMSLEEAKMHRAELQRARALQSYYEAKARKEKKIKSKKYHKVVKKGKAKKALKEFEQLQKVNPTVALEEMEKIENARMMERMSLKHQNSGKWAKSKAIMAKYDLEARQAMQEQLAKNKELTQKLQVASESEEEEGGTEVEELLVPHVANEVQMNVDGPNPWMFRSCTSDTKEAATQEDPEQVPELAAHEVSASEAEERPVAEEEILLREFEERQSLRKRSELNQDAEPASSQETKDSSSQEVLSELRALSQKLKEKHQSRKQKASSEGTVPQVQREEPAPEEAEPLLLQRSERVQTLEELEELGKEDCFQNKELPRPVLEGQQSERTPNNRPDAPKEKKEKEQLINLQNFLTTQSPSVRSLAVPTIIEELEDEEERDQRQMIKEAFAGDDVIRDFLKEKREAVEASKPKDVDLTLPGWGEWGGVGLKPSAKKRRQFLIKAPEGPPRKDKNLPNVIISEKRNIHAAAHQVQVLPYPFTHHRQFERTIQTPIGSTWNTQRAFQKLTTPKVVTKPGHIIKPIKAEDVGYQSSSRSDLPVIQRNPKRITTRHNKEEKL
partner: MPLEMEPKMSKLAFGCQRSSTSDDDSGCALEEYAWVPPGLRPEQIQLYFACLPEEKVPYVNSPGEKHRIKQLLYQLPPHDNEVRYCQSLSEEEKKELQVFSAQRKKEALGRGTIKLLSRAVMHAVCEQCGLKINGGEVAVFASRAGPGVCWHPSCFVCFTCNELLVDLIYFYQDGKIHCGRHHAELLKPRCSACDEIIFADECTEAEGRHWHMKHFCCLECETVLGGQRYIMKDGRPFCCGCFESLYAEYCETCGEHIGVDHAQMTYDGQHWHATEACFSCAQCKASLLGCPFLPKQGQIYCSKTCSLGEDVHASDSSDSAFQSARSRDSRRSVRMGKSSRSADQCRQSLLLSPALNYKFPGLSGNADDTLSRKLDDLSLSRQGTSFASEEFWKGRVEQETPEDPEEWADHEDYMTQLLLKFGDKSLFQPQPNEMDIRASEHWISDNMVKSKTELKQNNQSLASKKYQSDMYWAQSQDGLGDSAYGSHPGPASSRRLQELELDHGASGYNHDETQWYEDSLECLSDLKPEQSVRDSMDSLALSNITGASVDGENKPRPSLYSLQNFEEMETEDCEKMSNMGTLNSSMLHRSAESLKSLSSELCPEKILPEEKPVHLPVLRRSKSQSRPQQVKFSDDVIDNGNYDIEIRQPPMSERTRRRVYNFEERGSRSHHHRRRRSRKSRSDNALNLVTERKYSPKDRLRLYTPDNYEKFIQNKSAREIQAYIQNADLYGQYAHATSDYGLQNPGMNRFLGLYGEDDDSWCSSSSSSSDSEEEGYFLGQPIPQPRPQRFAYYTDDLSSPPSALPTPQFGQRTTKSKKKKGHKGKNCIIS
B2: Vasculin (Homo sapiens), Q86WP2 (parent)
chain: MAQHDFAPAWLNFPTPPSSTKSSLNFEKHSENFAWTENRYDVNRRRHNSSDGFDSAIGRPNGGNFGRKEKNGWRTHGRNGTENINHRGGYHGGSSRSRSSIFHAGKSQGLHENNIPDNETGRKEDKRERKQFEAEDFPSLNPEYEREPNHNKSLAAGVWEYPPNPKSRAPRMLVIKKGNTKDLQLSGFPVVGNLPSQPVKNGTGPSVYKGLVPKPAAPPTKPTQWKSQTKENKVGTSFPHESTFGVGNFNAFKSTAKNFSPSTNSVKECNRSNSSSPVDKLNQQPRLTKLTRMRTDKKSEFLKALKRDRVEEEHEDESRAGSEKDDDSFNLHNSNSTHQERDINRNFDENEIPQENGNASVISQQIIRSSTFPQTDVLSSSLEAEHRLLKEMGWQEDSENDETCAPLTEDEMREFQVISEQLQKNGLRKNGILKNGLICDFKFGPWKNSTFKPTTENDDTETSSSDTSDDDDV
partner: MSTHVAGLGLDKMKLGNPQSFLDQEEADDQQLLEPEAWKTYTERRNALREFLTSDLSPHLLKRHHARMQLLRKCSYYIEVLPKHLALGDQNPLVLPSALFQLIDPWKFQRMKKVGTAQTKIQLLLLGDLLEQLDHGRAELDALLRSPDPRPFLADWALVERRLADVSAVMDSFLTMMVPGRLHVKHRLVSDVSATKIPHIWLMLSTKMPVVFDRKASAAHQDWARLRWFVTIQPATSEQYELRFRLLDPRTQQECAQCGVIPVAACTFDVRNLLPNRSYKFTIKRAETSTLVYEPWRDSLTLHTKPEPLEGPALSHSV
B3: Protein SSX3 (Homo sapiens), Q99909 (parent)
chain: MNGDDTFARRPTVGAQIPEKIQKAFDDIAKYFSKEEWEKMKVSEKIVYVYMKRKYEAMTKLGFKAILPSFMRNKRVTDFQGNDFDNDPNRGNQVQRPQMTFGRLQGIFPKIMPKKPAEEGNVSKEVPEASGPQNDGKQLCPPGKPTTSEKINMISGPKRGEHAWTHRLRERKQLVIYEEISDPEEDDE
B4: Transcription initiation factor IIA subunit 1 (Homo sapiens), P52655-1 (parent)
chain: MANSANTNTVPKLYRSVIEDVINDVRDIFLDDGVDEQVLMELKTLWENKLMQSRAVDGFHSEEQQLLLQVQQQHQPQQQQHHHHHHHQQAQPQQTVPQQAQTQQVLIPASQQATAPQVIVPDSKLIQHMNASNMSAAATAATLALPAGVTPVQQILTNSGQLLQVVRAANGAQYIFQPQQSVVLQQQVIPQMQPGGVQAPVIQQVLAPLPGGISPQTGVIIQPQQILFTGNKTQVIPTTVAAPTPAQAQITATGQQQPQAQPAQTQAPLVLQVDGTGDTSSEEDEDEEEDYDDDEEEDKEKDGAEDGQVEEEPLNSEDDVSDEEGQELFDTENVVVCQYDKIHRSKNKWKFHLKDGIMNLNGRDYIFSKAIGDAEW
B5: Calcium-binding and coiled-coil domain-containing protein 2 (Homo sapiens), Q13137 (parent)
chain: MEETIKDPPTSAVLLDHCHFSQVIFNSVEKFYIPGGDVTCHYTFTQHFIPRRKDWIGIFRVGWKTTREYYTFMWVTLPIDLNNKSAKQQEVQFKAYYLPKDDEYYQFCYVDEDGVVRGASIPFQFRPENEEDILVVTTQGEVEEIEQHNKELCKENQELKDSCISLQKQNSDMQAELQKKQEELETLQSINKKLELKVKEQKDYWETELLQLKEQNQKMSSENEKMGIRVDQLQAQLSTQEKEMEKLVQGDQDKTEQLEQLKKENDHLFLSLTEQRKDQKKLEQTVEQMKQNETTAMKKQQELMDENFDLSKRLSENEIICNALQRQKERLEGENDLLKRENSRLLSYMGLDFNSLPYQVPTSDEGGARQNPGLAYGNPYSGIQESSSPSPLSIKKCPICKADDICDHTLEQQQMQPLCFNCPICDKIFPATEKQIFEDHVFCHSL
partner: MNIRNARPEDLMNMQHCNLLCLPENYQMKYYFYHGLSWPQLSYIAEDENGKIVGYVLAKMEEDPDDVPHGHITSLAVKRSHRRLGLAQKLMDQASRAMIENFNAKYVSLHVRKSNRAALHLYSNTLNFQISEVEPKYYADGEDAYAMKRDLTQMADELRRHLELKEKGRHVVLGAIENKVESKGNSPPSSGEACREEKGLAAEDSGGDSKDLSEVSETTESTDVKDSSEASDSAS
B6: Ribonuclease P protein subunit p25-like protein (Homo sapiens), Q8N5L8 (parent)
chain: MEHYRKAGSVELPAPSPMPQLPPDTLEMRVRDGSKIRNLLGLALGRLEGGSARHVVFSGSGRAAGKAVSCAEIVKRRVPGLHQLTKLRFLQTEDSWVPASPDTGLDPLTVRRHVPAVWVLLSRDPLDPNECGYQPPGAPPGLGSMPSSSCGPRSRRRARDTRS
partner: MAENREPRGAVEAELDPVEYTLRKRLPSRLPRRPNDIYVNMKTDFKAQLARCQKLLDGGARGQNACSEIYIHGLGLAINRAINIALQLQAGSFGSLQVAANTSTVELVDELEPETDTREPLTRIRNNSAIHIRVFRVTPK

In the first assay the parent is B1. As to conditions: with pric1_human PRICKLE1, Q96MT3.
As for V109D, the “effect of a mutation on the interaction” value is recorded as “with no effect”. Take T101A: the “effect of a mutation on the interaction” value was “disrupting interaction strength”.

As to R672H, the “effect of a mutation on the interaction” value is listed as “with no effect”.

Variants of B2 are the subject of a further assay. As to conditions: with fnd11_human FNDC11, Q9BVV2.
For the variant S449R, the “effect of a mutation on the interaction” value is “with no effect”. As for T223A, the “effect of a mutation on the interaction” value is “with no effect”.

Variants of B3 are the subject of a further assay. As to conditions: with cep63_human CEP63, Q96MT8.
cep63_human CEP63, Q96MT8, sequence (Q96MT8 whole entry): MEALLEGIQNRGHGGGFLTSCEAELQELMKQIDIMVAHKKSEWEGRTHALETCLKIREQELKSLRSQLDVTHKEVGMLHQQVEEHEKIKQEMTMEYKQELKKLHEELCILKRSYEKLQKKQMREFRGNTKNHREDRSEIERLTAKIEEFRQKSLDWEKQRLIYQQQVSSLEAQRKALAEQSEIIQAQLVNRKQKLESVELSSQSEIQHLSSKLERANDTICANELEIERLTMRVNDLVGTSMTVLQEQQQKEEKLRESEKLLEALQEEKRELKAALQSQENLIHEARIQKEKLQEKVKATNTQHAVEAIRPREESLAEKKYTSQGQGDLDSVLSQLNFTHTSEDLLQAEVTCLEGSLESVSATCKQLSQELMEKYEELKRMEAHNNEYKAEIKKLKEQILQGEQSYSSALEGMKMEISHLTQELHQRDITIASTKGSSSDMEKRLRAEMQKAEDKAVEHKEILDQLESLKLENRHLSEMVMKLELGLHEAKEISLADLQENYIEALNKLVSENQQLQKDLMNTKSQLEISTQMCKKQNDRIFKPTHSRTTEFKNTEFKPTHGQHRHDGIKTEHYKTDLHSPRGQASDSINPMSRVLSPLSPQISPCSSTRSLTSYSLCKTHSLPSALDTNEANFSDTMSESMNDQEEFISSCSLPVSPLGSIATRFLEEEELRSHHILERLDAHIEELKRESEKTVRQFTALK
Regarding R159S, the “effect of a mutation on the interaction” value was “with no effect”. T77A: the “effect of a mutation on the interaction” value is on record as “with no effect”.

In the next assay the parent is B4. The settings on record: with nfya_human NFYA.
As to L30V, the “effect of a mutation on the interaction” value is recorded as “with no effect”.

Variants of B5 are the subject of another assay. The settings on record: with naa10_human NAA10, P41227.
On to P389A, for which the “effect of a mutation on the interaction” value is listed as “with no effect”. The same measure, in the same setting: in the case of T273A it was “with no effect”. On the same count and under the same terms, then E222K, with “with no effect”.

In a further assay the parent is B6. The settings on record: with pop7_human POP7, O75817.
For the variant D127N, the “effect of a mutation on the interaction” value is given as “with no effect”.
